Assay results from article PMC7234810.

Tests used:
[1] = molecular target: Human ST2-Fc chimera (human) (UniProt Q01638)
[2] = molecular target: Mouse ST2-Fc chimera (mouse) (UniProt P14719); assay: SPR; BIAcore T200, single cycle kinetics, 25°C; mouse ST2-Fc (~200 RU) or mouse TRAP-Fc (~400 RU) captured on a Protein G chip; HpBARI injected in three-fold dilutions; 10 mM NaH2PO4 pH 7.5, 150 mM NaCl, 50 uM EDTA, 0.05% surfactant P20; 1:1 model
[3] = molecular target: Mouse IL-33-TRAP-Fc (a fusion protein of ST2 and IL-1RAcP with an Fc tag) (mouse); assay: as above

Mouse ST2-Fc chimera (mouse), sequence (P14719 27-332, stated change not applied): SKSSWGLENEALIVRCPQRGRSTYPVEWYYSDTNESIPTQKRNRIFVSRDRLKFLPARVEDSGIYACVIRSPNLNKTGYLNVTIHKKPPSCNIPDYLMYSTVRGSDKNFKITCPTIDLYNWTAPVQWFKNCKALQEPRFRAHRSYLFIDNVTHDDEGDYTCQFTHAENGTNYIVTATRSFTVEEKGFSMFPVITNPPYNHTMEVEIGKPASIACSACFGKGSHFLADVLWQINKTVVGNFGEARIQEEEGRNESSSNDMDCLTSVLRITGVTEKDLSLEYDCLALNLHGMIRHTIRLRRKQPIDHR
Human ST2-Fc chimera (human), sequence (Q01638 19-328, stated change not applied): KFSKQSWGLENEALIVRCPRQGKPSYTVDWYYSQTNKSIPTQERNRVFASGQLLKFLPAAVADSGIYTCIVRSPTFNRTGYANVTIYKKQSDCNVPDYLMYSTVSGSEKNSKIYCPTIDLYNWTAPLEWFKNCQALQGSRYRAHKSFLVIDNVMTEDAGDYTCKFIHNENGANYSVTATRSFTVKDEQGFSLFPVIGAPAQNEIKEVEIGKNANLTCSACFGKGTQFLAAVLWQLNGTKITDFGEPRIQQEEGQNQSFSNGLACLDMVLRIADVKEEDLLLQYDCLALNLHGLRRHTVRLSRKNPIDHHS

Row | Substance | IC50 of inhibition of IL-33-induced IFN-γ production from human PBMCs (5 ng/ml IL-12 + 0.1 ng/ml oxidation resistant human IL-33, 44 hr, ELISA); blocks human IL-33 with human ST2 [1] [nM] | Kd [2] [nM] | koff [2] [s⁻¹] | kon [2] [M⁻¹ s⁻¹] | Kd [3] [nM] | koff [3] [s⁻¹] | kon [3] [M⁻¹ s⁻¹] | fold change of the off-rate against the N-terminal tagged construct [3] [fold]
1 | H. polygyrus Binds Alarmin Receptor and Inhibits (HpBARI), N-terminal tagged (natural protein) | > 1000 | 0.26 | 0.0011 | 4e+06 | 0.17 | 0.00065 | 3.9e+06 | 
2 | HpBARI expressed with C-terminal tags (natural protein) |  |  |  |  |  |  |  | 4
